T1: TGFβ2 (human, UniProt P61812 303-414)
T1 sequence (looked up): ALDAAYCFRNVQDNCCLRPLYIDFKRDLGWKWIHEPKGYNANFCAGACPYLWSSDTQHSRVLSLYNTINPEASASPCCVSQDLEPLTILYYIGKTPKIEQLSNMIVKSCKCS

T2: TGFβ3 (human, UniProt P10600 301-412)
T2 sequence (looked up): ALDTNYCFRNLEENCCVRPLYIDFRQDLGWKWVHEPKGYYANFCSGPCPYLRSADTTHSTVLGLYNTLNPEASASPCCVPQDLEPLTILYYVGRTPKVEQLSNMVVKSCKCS


Key:
Test in all cases: cell-based or functional assay
[1] = target: TGFβ1 (human, UniProt P01137 279-390)
[2] = target: T1, TGFβ2
[3] = target: T2, TGFβ3

TGFβ1, sequence (P01137 279-390 limits assumed): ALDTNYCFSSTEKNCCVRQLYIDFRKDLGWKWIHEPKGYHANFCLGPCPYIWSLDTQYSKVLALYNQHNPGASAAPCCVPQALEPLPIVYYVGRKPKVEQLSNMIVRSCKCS

Row | Binder | IC50 (pM), inhibition of TGFβ1 (640 pg/mL), CAGA12-luciferase reporter in A549 cells [1] [pM] | IC50 (pM), inhibition of TGFβ2 (480 pg/mL), CAGA12-luciferase reporter in A549 cells [2] [pM] | IC50 (pM), inhibition of TGFβ3 (270 pg/mL), CAGA12-luciferase reporter in A549 cells [3] [pM]
1 | TGFβRIISHORT-Fc:ALK5-Fc heterodimer (Fc fusion) chain 1: TIPPHVQKSVNNDMIVTDNNGAVKFPQLCKFCDVRFSTCDNQKSCMSNCSITSICEKPQEVCVAVWRKNDENITLETVCHDPKLPYHDFILEDAASPKCIMKEKKKPGETFFMCSCSSDECNDNIIFSEEYNTSNPDTGGGTHTCPPCPAPELLGGPSVFLFPPKPKDTLMISRTPEVTCVVVDVSHEDPEVKFNWYVDGVEVHNAKTKPREEQYNSTYRVVSVLTVLHQDWLNGKEYKCKVSNKALPAPIEKTISKAKGQPREPQVYTLPPSRKEMTKNQVSLTCLVKGFYPSDIAVEWESNGQPENNYKTTPPVLKSDGSFFLYSKLTVDKSRWQQGNVFSCSVMHEALHNHYTQKSLSLSPGK chain 2: ALLPGATALQCFCHLCTKDNFTCVTDGLCFVSVTETTDKVIHNSMCIAEIDLIPRDRPFVCAPSSKTGSVTTTYCCNQDHCNKIELPTTVKSSPGLGPVETGGGTHTCPPCPAPELLGGPSVFLFPPKPKDTLMISRTPEVTCVVVDVSHEDPEVKFNWYVDGVEVHNAKTKPREEQYNSTYRVVSVLTVLHQDWLNGKEYKCKVSNKALPAPIEKTISKAKGQPREPQVYTLPPSREEMTKNQVSLTCLVKGFYPSDIAVEWESNGQPENNYDTTPPVLDSDGSFFLYSDLTVDKSRWQQGNVFSCSVMHEALHNHYTQKSLSLSPG | < 350 | ~200 | < 90
2 | TGFβRIILONG-Fc:ALK5-Fc heterodimer (Fc fusion) chain 1: TIPPHVQKSDVEMEAQKDEIICPSCNRTAHPLRHINNDMIVTDNNGAVKFPQLCKFCDVRFSTCDNQKSCMSNCSITSICEKPQEVCVAVWRKNDENITLETVCHDPKLPYHDFILEDAASPKCIMKEKKKPGETFFMCSCSSDECNDNIIFSEEYNTSNPDTGGGTHTCPPCPAPELLGGPSVFLFPPKPKDTLMISRTPEVTCVVVDVSHEDPEVKFNWYVDGVEVHNAKTKPREEQYNSTYRVVSVLTVLHQDWLNGKEYKCKVSNKALPAPIEKTISKAKGQPREPQVYTLPPSRKEMTKNQVSLTCLVKGFYPSDIAVEWESNGQPENNYKTTPPVLKSDGSFFLYSKLTVDKSRWQQGNVFSCSVMHEALHNHYTQKSLSLSPGK chain 2: ALLPGATALQCFCHLCTKDNFTCVTDGLCFVSVTETTDKVIHNSMCIAEIDLIPRDRPFVCAPSSKTGSVTTTYCCNQDHCNKIELPTTVKSSPGLGPVETGGGTHTCPPCPAPELLGGPSVFLFPPKPKDTLMISRTPEVTCVVVDVSHEDPEVKFNWYVDGVEVHNAKTKPREEQYNSTYRVVSVLTVLHQDWLNGKEYKCKVSNKALPAPIEKTISKAKGQPREPQVYTLPPSREEMTKNQVSLTCLVKGFYPSDIAVEWESNGQPENNYDTTPPVLDSDGSFFLYSDLTVDKSRWQQGNVFSCSVMHEALHNHYTQKSLSLSPG | 204 | 154 | 35

— patent publication US20210147508A1 (ACCELERON PHARMA, published 2021)
